Non-standard residues stand in square brackets, D forms with d. No end group written: not given here. ebes = not defined here
Columns and labels:
Assay type in all cases: physicochemical
[1] = Transmission electron microscopy (TEM) of negatively stained aggregate
From the text: The insert is an enlarged image.

[2] = Diffusion-ordered spectroscopy (DOSY) in solution
[3] = Small-angle X-ray scattering (SAXS) of polypeptide in solution
Procedure: The black circles represent experimental data and the red line represents X-ray scattering data of the most likely model obtained using DAMMIF.
As shown in FIG. 10 and FIG. 11, a form factor (P(q)) and an electron pair distance distribution function p(r) were obtained to investigate the shape and size of the polypeptide prepared in Example 2 (ODβ-S).
For the polypeptide prepared in Example 2 (ODβ-S), Rg,p(r) was calculated to be 11.01±0.078 Å and Dmax was calculated to be 34.0 Å.

Comparative Example 2: comparative naturally directed β-α-β polypeptide WKWEWYWKWEW-GSGS-A(EAAAK)2A-GS-... (SEQ ID NOS 13 and 3) (chain 1 WKWEWYWKWEWGSGSAEAAAKEAAAKAGSK; chain 2 WEWKWYWEWKW; also: chain 2 joined at Lys30 side chain (εK branch))
aggregate morphology [1]: forms a heterogeneous structure and exists mainly as large-sized aggregates

Example 2: short polypeptide WKWEW-GSGS-(ebes)GS-εK- with oppositely directed WEWKW (SEQ ID NOS 9 and 10) (chain 1 WKWEWGSGS[ebes]GSK; numbers in words are those of the source; reading uncertain; also: K12 εK branch carrying oppositely directed WEWKW strand (chain 2), printed as WKWEW-GSGS-(ebes)GS-εK-)
D (diffusion coefficient) [2]: 1.625×10^−10 m^2/s
hydrodynamic radius R(H) [2]: 12.27 Å
aggregation state [3]: exists as monomers rather than as aggregates
Dmax ([3]; from p(r)): 34.0 Å
Rg,p(r) ([3]; from p(r) using GNOM): 11.01±0.078 Å

— patent US9822149B2, “Polypeptide having multiple directionality and self-assembled nanostructure containing the same” (INDUSTRY-ACADEMIC COOPERATION FOUNDATION, YONSEI UNIVERSITY, priority 2014, dated 2017)
